# From publication PMC9918544
# Assays:
# FSFG_(52×12) Mutant 1 = test: partitioning into the condensed FG phase (confocal laser scanning microscopy); FG particles of unlabelled FG domain in assay buffer (50 mM Tris/HCl, 5 mM DTT, 150 mM NaCl) mixed with fluorescent probe: 6 μM mCherry, 3 μM EGFP, 1 μM NTR or 1.5 μM NTR pre-incubated with 1 μM cargo; partition coefficient = signal in the centre of the particle / buffer; 21 °C
# FSFG_(52×12) Mutant 2 = test: as above
substance,measurement,setting,value
"NTF2 (Nuclear transport factor 2), coupled with Alexa488 (from UniProt P61970 1-127) (natural protein)",partition coefficient,FSFG_(52×12) Mutant 1,2000
same,partition coefficient,FSFG_(52×12) Mutant 2,2000
